From patent publication US20200338203A1 (Bicycle, published 2020) come the findings set out here.

Numbered stars: 1 amine (or outer) side, 2 acyl side, 3 side chain; on linkers, the order of the positions; unused ones are H or OH. Bridge positions count the residues as written; N and C are the ends. Square brackets hold non-standard residues; d marks the D form. Ends that are not written are not given here. 1Nal = N[C@@H](Cc1cccc2ccccc12)C(=O)O; TBMB = c1c(C[*:1])cc(C[*:3])cc1C[*:2]; hArg = N=C(N)NCCCC[C@H](N)C(=O)O; Tle = CC(C)(C)[C@H](N)C(=O)O; Aib = CC(C)(N)C(=O)O; βAla = NCCC(=O)O; Sar = CNCC(=O)O

Broadly, the Ki is the equilibrium dissociation constant of an inhibitor or competing ligand from its target.

T1 sequence (P29317 24-537): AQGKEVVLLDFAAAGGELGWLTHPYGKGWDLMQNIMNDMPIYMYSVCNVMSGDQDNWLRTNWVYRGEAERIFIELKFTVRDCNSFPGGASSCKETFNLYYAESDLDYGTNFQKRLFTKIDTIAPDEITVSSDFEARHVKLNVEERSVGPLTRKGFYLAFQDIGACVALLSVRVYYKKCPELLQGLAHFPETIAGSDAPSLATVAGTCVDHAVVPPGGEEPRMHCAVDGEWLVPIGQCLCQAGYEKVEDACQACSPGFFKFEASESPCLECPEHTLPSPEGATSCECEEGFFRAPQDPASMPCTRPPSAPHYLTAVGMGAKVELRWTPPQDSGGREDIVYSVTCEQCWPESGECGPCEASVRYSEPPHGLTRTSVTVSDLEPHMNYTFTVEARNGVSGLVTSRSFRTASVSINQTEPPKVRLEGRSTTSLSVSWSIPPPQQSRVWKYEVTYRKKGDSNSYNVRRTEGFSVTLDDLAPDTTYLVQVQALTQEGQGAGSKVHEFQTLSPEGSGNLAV

The first experiment concerns the target T1, Human EphA2 (Ecto) (Human, UniProt P29317 24-537).
T1 construct: extracellular domain
The experiment in a line: FP competition; competitor Compound 18.
For AEGLPCPWGPFWCPVNRPGCA (linker 6-13-20 via TBMB) [Compound 55], the Ki amounted to 11.3 nM. Turning to [Sar][Sar]ACP[1Nal]GPFWCPVN[hArg]P[dA]C (linker 4-11-18 via TBMB) [Compound 134], the Ki was 1.2 nM. For the molecule [Sar][Sar]ACP[1Nal]GPFWCPV[dA][hArg]PGC (linker 4-11-18 via TBMB) [Compound 133], the Ki was 14 nM. On the same count and under the same terms, to [Sar][Sar]AC[Aib][1Nal]G[Aib]FWCPVNR[Aib]GC (linker 4-11-18 via TBMB) [Compound 135] belongs 43 nM. On to [Sar][Sar]ACP[1Nal]G[Aib]FWCP[Tle]N[hArg]PGC (linker 4-11-18 via TBMB) [Compound 136], for which the Ki stood at 23 nM.

With ADVHCPWGPFWCPVNRPGCA (linker 5-12-19 via TBMB) [Compound 57], the Ki was 0.48 nM. On to ADVTCPWGPFWCPVNRPGCA (linker 5-12-19 via TBMB) [Compound 58], for which the Ki was determined as 1.35 nM.

In the next experiment the target is T1, Human EphA2 (Ecto). The experiment is described as follows: FP competition; competitor Compound 66. The method, then:
Peptides without a fluorescent tag were tested in competition with a peptide with a fluorescent tag and a known Kd (Table 2). Peptides were diluted to an appropriate concentration in assay buffer as described in the direct binding assay with a maximum of 5% DMSO, then serially diluted 1 in 2. Five μL of diluted peptide was added to the plate followed by 10 μL of human or mouse EphA2 (Table 1) at a fixed concentration which was dependent on the fluorescent peptide used (Table 2), then 10 μL fluorescent peptide added. Measurements were conducted as for the direct binding assay, however the gain was determined prior to the first measurement.
Regarding AEGLPCPWGPFWCPVNRPGCA (linker 6-13-20 via TBMB) [Compound 55], the Ki amounted to 6.15 nM. Still for that read-out and setting: to [Sar][Sar]ACP[1Nal]GPFWCPVN[hArg]P[dA]C (linker 4-11-18 via TBMB) [Compound 134] belongs 6.15 nM; to [Sar][Sar]ACP[1Nal]GPFWCPV[dA][hArg]PGC (linker 4-11-18 via TBMB) [Compound 133], 3.7 nM. Take [Sar][Sar]AC[Aib][1Nal]G[Aib]FWCPVNR[Aib]GC (linker 4-11-18 via TBMB) [Compound 135]: the Ki came out at 30 nM.

Consider [Sar][Sar]ACP[1Nal]G[Aib]FWCP[Tle]N[hArg]PGC (linker 4-11-18 via TBMB) [Compound 136], for which the Ki amounted to 15 nM. Take ADVHCPWGPFWCPVNRPGCA (linker 5-12-19 via TBMB) [Compound 57]: the Ki was found to be 1.2 nM. Take ADVTCPWGPFWCPVNRPGCA (linker 5-12-19 via TBMB) [Compound 58]: the Ki came to 2.65 nM.

Another experiment concerns the target T1, Human EphA2 (Ecto). The experiment in a line: FP competition; competitor Compound 18. This is another data set of the same source.
For Ac-[Sar][Sar]A[dH]DVPCP[1Nal]G[Aib]F[1Nal]CP[Tle]NR[Aib]GC (linker 8-15-22 via TBMB) [Compound 232], the Ki was determined as 0.9 nM. On the same count and under the same terms, to [βAla][Sar][Sar][Sar][Sar][Sar][Sar][Sar][Sar][Sar][Sar]H[dD]VPC[Aib][1Nal]G[Aib]F[1Nal]CP[Tle]N[hArg]PGC (linker 16-23-30 via TBMB) [Compound 235] belongs 2.58 nM; to Ac-[Sar][Sar]A[dD]VTCP[1Nal]G[Aib]F[1Nal]CP[Tle]N[hArg]P[dD]C (linker 7-14-21 via TBMB) [Compound 184], 1.19 nM; to Ac-[Sar][Sar]A[dH]DVPCP[1Nal]G[Aib]F[1Nal]CP[Tle]N[hArg]PGC (linker 8-15-22 via TBMB) [Compound 231], 1.93 nM. For [dD]VTCP[1Nal]G[Aib]F[1Nal]CP[Tle]NR[Aib]GC (linker 4-11-18 via TBMB) [Compound 186], the Ki was 1.34 nM. [βAla][Sar][Sar][Sar][Sar][Sar][Sar][Sar][Sar][Sar][Sar]H[dD]VPC[Aib][1Nal]G[Aib]F[1Nal]CP[Tle]NRPGC (linker 16-23-30 via TBMB) [Compound 234] yielded a Ki of 3.94 nM. In turn, Ac-[Sar][Sar]A[dD]VTCP[1Nal]G[Aib]F[1Nal]CP[Tle]NR[Aib]GC (linker 7-14-21 via TBMB) [Compound 183] displayed a Ki of 1.02 nM. Ac-[Sar][Sar]A[dD]VTCP[1Nal]G[Aib]F[1Nal]CP[Tle]N[hArg]PGC (linker 7-14-21 via TBMB) [Compound 182] yielded a Ki of 1.16 nM.
